According to article PMC5007356:

How the values were obtained:
[1] = target: GFP-Spd2 (Drosophila melanogaster); assay: co-IP; anti-GFP immunoprecipitation with GFP-Trap-A beads from D. mel-2 cell lysates, 2 h at 4 °C; 10 mM Tris-HCl pH 7.5, 150 mM NaCl, 0.5 mM EDTA, NP40; immunoblot; band intensities quantified in ImageJ
[2] = target: GFP-Cdc27 (Drosophila melanogaster); assay: as above

Row | precipitation efficiency (percent of input co-precipitated) [1] [%] | co-IP efficiency [2] | Molecule
1 | 4.55 |  | Cdc27 (endogenous) (natural protein)
2 | 14.5 |  | Fzr (endogenous) (from UniProt O18402 1-478) (natural protein)
3 |  | 2.7e-07 | Spd2 (endogenous) (from UniProt Q9VV79 1-1146) (natural protein)
4 | 2.43 |  | Fzy (endogenous) (natural protein) MSQFNFVSDLQNALIMDGETRGPAPRWKKKLEASLNGSVNTTRSVLSVSYNTSFSGVQAPTKTPGKSSEGKTKKSNTTPSKTPGGGDRFIPNRAATNFELAHFLVNKDSGDKSDEENDKATSSNSNESNVQASAHKGDRQKLISEVAQVGDSKGGRILCYQNKAPAAPETHNNPLKVVYSIKTPISTKSGSRYIPTTSERILDAPDFINDYYLNLMDWSADNIVAVALGSCVYLWNAQTGNIEQLTEFEEGDYAGSLSWIQEGQILAIGNSTGAVELWDCSKVKRLRVMDGHSARVGSLAWNSFLVSSGSRDGTIVHHDVRAREHKLSTLSGHTQEVCGLKWSTDFKYLASGGNDNLVNVWSAASGGVGTATDPLHKFNDHQAAVRALAWCPWQPSTLASGGGTADRCIKFWNVNNGTLMKSVDSKSQVCSLLFSRHYKELISAHGFANNQLTIWKYPTMVKQADLTGHTSRVLQMAMSPDGSTVISAGADETLRLWNCFAPDPLASKKAVSTSKGKQSVFRQSIR
